Target: crx_bovin CRX (UniProt Q9XSK0)
Sequence (Q9XSK0 whole entry): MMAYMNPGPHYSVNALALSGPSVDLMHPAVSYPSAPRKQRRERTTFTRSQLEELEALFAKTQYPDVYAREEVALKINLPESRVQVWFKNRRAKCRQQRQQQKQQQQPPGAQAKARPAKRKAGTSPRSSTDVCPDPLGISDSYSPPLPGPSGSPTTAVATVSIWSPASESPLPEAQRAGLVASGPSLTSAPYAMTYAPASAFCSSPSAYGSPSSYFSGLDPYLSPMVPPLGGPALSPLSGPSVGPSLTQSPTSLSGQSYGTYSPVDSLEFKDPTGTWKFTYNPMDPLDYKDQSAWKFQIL

Retina and anterior neural fold homeobox protein 2 (Bos taurus (Bovine)), Q7YRX0 G137R, sequence (Q7YRX0 whole entry G137R): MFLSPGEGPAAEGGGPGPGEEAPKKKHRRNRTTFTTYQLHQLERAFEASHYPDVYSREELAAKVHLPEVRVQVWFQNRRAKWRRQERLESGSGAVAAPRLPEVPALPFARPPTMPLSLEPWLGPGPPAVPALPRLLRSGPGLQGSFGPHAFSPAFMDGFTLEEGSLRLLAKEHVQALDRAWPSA

“Retina and anterior neural fold homeobox protein 2 (Bos taurus (Bovine)), Q7YRX0 G137R” was tested, and the “effect of a mutation on the interaction” value was “decreasing interaction”.
